Data as given in PMC10193008, “Discovery of an inhibitor of DNA-driven inflammation that preferentially targets the AIM2 inflammasome”.

Target: T1, AIM2-GST (rhAIM2) (human, UniProt O14862 1-343)
T1 sequence: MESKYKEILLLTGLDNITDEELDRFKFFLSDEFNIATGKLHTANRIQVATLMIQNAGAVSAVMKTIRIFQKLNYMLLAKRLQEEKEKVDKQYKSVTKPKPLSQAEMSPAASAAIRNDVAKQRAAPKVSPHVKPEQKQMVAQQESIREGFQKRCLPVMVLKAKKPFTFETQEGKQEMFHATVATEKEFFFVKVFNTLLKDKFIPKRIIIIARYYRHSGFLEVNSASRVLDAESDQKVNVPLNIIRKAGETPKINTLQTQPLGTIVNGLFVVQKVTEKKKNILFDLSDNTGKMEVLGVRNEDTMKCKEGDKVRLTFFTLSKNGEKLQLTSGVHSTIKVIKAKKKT
Assay: EMSA; no inhibitor
Details: protein: commercial; tags: GST; label: none (SYBR Safe stain after electrophoresis); blunt

B1: VACV72 dsDNA (dsDNA)
DNA 1: ATCCATCAGAAAGAGGTTTAATATTTTTGTGAGACCATCGAAGAGAGAAAGAGATAAAACTTTTTTACGACT
DNA 2: AGTCGTAAAAAAGTTTTATCTCTTTCTCTCTTCGATGGTCTCACAAAAATATTAAACCTCTTTCTGATGGAT
Question: Does B1 bind?
Answer: Result: binds
